{"source": "paper PMC11211324", "about": "(2024)", "target": "KRAS-LgBiT (UniProt P01116 1-189)", "sequence (P01116 whole entry)": "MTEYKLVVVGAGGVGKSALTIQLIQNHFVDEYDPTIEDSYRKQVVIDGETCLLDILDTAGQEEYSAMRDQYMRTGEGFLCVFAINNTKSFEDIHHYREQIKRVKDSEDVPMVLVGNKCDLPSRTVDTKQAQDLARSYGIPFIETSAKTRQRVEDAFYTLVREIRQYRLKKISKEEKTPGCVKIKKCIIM", "assay": "NanoBiT in 293T cells", "data": [{"binder": "TKD (nanobody)-SmBiT (VHH) VHH: DVQLQESGGGLVQAGGSLRLSCVASGRTFSTYPTGWFRQAPGKEREFVARINLSGGITNYADSVKGRFTISRDNAKNTVYLQMNSLKPEDTAVYYCGGGSTTWAGGIPTNFDYWGQGTQVTVSS", "values": [{"measurement": "Kd", "value": 41.3, "unit": "nM"}]}]}
